For assay [1], the target named is NPM1 (nucleophosmin, B23) (UniProt P06748). The assay can be described thus: anti-FLAG IP of transduced peptide, NPM1 blot. As to conditions: reference: TAT-ETD-FLAG WT; sites S641,S643.
Another assay addresses T1, GST‐NPM1 B23.1 (UniProt P06748 1-294).
T1 construct: NPM1 isoform B23.1, the most abundant form, with the C-terminal aromatic stretch; also called GST‐B23.1; B23.1 form of recombinant NPM1; source: E. coli BL21 (RIL), purified (GSH‐agarose)
In words: pull-down; GST-NPM1 forms immobilised on GSH-agarose as baits, bacterially expressed and purified HIF-1α(348–826)SE or TAT-ETD-SE-FLAG peptide as prey; immunoblot with anti-HIF-1α or anti-Flag. Conditions: both partners purified. In general terms: A western blot detects proteins with antibodies after separation by electrophoresis.

T1 sequence (P06748 whole entry, canonical isoform): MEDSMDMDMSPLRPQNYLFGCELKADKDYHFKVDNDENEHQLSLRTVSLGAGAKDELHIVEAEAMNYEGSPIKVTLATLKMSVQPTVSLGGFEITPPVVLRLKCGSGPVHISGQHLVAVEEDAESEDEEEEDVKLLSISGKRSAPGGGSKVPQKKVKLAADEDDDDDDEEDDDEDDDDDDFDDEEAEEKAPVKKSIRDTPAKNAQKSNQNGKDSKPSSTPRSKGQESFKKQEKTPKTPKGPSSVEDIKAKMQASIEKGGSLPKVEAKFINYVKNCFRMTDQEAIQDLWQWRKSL

Turning to “HIF‐1α ETD, 616-658 (from UniProt Q16665) TAT-ETD-SA-FLAG”, the “binding against the reference” value in assay [1] is given as “lost”.

B1: TAT‐ETD(SE)‐FLAG peptide (peptide, UniProt Q16665 616-658, looked up)
chain: TTTATTDELKTVTKDRMEDIKILIAEPSPTHIHKETTSATSSP
notes: HIF-1α ERK targeted domain (ETD), residues 616–658, Ser641 to Glu; source: E. coli, purified
For the molecule B1, the binding result with GST‐NPM1 B23.1 was “binds”.
